Molecular target: T1, human beta-secretase-Fc fusion (Homo sapiens, UniProt P56817)
T1 construct: A plasmid containing cDNA encoding amino acids 1-460 of beta-secretase fused to the Fc portion of human IgG; made in house; host or cells: human embryonic kidney 293T cells, stably transfected; purified from conditioned medium on protein A
Assay: Beta-secretase activity assay: cleavage of DNP-labeled APP peptides, HPLC
Type: biochemical
Details: Sw, Wt and MV peptides; FIG. 11
Experimental: FIG. 11 is a graph depicting the ability of human beta-secretase-Fc fusion to cleave various APP peptides. The X-axis is the amount of enzyme in the reaction mixture and the Y-axis is the amount of cleavage (denoted as pmol product formed) of each of three substrate peptides. “Sw” refers to the APP peptide with the Swedish mutation; “Wt” refers to wild type APP peptide; and “MV” refers to a mutated APP peptide.
Recombinant native as well as mutant beta secretase polypeptides were assayed for activity by measuring the ability of the molecule to cleave various A-beta peptides.
Each assay was conducted as follows. […] Quenched reactions were analyzed by HPLC on a 5 μm, C18 reversed-phase column (Sephasil Peptide, 4.6×100 mm; Amersham Pharmacia Biotech, Piscataway, N.J.) using first a linear gradient of 18-31.5 percent acetonitrile in 0.1 percent TFA over 40 minutes, then 31.5-81 percent acetonitrile for 1 minute, then 81 percent acetonitrile for 4 minutes, and then returning to 18-percent acetonitrile for several minutes to reequilibrate the column. […] Proteolysis of the Sw and WT octapeptides was evaluated using a linear gradient of 27-37.8 percent acetonitrile over 24 minutes on the same column.
Both product and substrate were monitored by absorbance at 360 nm. […]
The concentration of standard was determined from the extinction coefficient of DNP (e365nm=16 mM^−1cm^−1). […]

T1 sequence (P56817 with tags, fused parts or gaps limits assumed): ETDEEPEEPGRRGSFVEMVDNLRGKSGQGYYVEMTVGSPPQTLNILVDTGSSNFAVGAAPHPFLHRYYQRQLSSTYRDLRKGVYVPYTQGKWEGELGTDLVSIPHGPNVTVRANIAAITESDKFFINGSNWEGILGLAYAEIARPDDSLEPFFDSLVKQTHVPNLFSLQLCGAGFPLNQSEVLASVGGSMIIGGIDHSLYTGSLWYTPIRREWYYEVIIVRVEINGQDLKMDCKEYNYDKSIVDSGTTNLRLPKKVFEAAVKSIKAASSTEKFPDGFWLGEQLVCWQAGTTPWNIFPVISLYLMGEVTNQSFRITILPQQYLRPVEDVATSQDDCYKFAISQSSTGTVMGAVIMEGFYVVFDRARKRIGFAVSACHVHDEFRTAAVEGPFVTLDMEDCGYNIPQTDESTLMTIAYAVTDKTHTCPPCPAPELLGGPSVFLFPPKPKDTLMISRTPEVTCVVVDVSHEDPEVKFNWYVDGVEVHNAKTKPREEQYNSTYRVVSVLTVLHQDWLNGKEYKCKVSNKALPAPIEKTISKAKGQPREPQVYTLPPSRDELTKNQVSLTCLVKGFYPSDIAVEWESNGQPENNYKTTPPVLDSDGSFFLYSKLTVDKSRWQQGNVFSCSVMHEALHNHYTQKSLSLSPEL

B1: beta-secretase-Fc: amino acids 1-460 of human beta-secretase fused to the Fc portion of human IgG1, alanine-valine-threonine at the junction (protein)
chain: TQHGIRLPLRSGLGGAPLGLRLPRETDEEPEEPGRRGSFVEMVDNLRGKSGQGYYVEMTVGSPPQTLNILVDTGSSNFAVGAAPHPFLHRYYQRQLSSTYRDLRKGVYVPYTQGKWEGELGTDLVSIPHGPNVTVRANIAAITESDKFFINGSNWEGILGLAYAEIARPDDSLEPFFDSLVKQTHVPNLFSLQLCGAGFPLNQSEVLASVGGSMIIGGIDHSLYTGSLWYTPIRREWYYEVIIVRVEINGQDLKMDCKEYNYDKSIVDSGTTNLRLPKKVFEAAVKSIKAASSTEKFPDGFWLGEQLVCWQAGTTPWNIFPVISLYLMGEVTNQSFRITILPQQYLRPVEDVATSQDDCYKFAISQSSTGTVMGAVIMEGFYVVFDRARKRIGFAVSACHVHDEFRTAAVEGPFVTLDMEDCGYNIPQTDESTLMTIAYAVT
modifications: left off: a dimerising Fc or GST
notes: amino acids 1-460 of human beta-secretase fused to the Fc portion of human IgG1, alanine-valine-threonine at the junction
- substrate specificity of the enzyme: has the same substrate specificity that has previously been described for beta-secretase from intact cells
